For assay [1], the target named is T1, human calcitonin receptor (human, UniProt P30988 25-474).
T1 construct: whole, on cells; Membranes of a stably transfected BHK cell line (Assay VII); also called hCTR; hCT
T1 sequence (looked up): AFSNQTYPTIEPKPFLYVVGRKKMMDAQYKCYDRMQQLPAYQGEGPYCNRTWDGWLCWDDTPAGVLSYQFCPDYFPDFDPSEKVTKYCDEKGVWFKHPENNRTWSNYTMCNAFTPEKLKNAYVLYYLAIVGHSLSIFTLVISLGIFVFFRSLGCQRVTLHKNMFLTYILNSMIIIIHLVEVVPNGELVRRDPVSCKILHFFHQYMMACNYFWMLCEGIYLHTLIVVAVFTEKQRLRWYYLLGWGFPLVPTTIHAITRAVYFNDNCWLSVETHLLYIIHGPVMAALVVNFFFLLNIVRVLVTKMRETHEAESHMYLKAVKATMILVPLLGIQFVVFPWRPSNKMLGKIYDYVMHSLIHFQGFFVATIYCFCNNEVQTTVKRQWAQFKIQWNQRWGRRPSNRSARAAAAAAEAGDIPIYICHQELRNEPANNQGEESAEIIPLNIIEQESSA
The experiment in a line: ratio IC50 human calcitonin receptor / IC50 human amylin receptor (reference). In short, it runs like this:
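Membranes (35 ng/μL final) + SPA beads, 50 mM Hepes pH 7.4 buffer with 1 mM CaCl2, 5 mM MgCl₂, 0.1% OA, 0.02% Tween20; 120 min, 25° C, shaking; centrifuged, counted; IC₅₀ by one-site binding competition.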

The target of assay [2] is T2, rat amylin receptor (rat calcitonin receptor + rat RAMP 3) (rat, UniProt P32214 25-516; Q9JJ73 23-147).
T2 construct: whole, on cells; Membranes of transiently transfected BHK tk'ts 13 cells (Assay VI); also called rAmylin-R; rat amylin 3(a) receptor
T2 sequence (looked up) 1: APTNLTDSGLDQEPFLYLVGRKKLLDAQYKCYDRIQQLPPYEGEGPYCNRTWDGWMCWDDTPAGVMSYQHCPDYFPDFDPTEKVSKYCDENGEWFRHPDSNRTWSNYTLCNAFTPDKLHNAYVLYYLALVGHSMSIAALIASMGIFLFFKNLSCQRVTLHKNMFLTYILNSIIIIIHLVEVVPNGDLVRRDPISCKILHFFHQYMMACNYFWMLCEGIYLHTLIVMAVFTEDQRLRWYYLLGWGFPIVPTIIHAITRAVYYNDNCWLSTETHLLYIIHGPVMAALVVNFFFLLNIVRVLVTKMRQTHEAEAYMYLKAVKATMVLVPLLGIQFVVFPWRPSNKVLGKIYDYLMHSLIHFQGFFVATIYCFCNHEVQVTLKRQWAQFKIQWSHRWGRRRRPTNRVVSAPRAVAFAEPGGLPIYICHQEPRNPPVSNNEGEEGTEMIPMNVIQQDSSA
T2 sequence (looked up) 2: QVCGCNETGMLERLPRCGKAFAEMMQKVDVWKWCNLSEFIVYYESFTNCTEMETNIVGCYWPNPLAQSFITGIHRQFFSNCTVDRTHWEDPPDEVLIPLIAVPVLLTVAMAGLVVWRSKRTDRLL
The experiment in a line: SPA competition with 125I-rat amylin, membranes of BHK cells with rat calcitonin receptor + rat RAMP3 (Assay VI).

Assay [3] has as its target T3, rat calcitonin receptor (rat, UniProt P32214 25-516).
T3 construct: whole, on cells; Membranes of transiently transfected BHK tk'ts 13 cells (Assay VIII); also called rCTR
T3 sequence (looked up): T2 sequence (looked up) 1
The experiment in a line: SPA competition with 125I-calcitonin, membranes of BHK cells with rat calcitonin receptor (Assay VIII).

Assay [4] concerns the target T3, rat calcitonin receptor. The experiment in a line: ratio IC50 rat calcitonin receptor / IC50 rat amylin receptor (reference).

Numbered stars: 1 amine (or outer) side, 2 acyl side, 3 side chain; on linkers, the order of the positions; unused ones are H or OH. Bridge positions count the residues as written; N and C are the ends. * marks the point of attachment. C20 diacid = O=C(O)CCCCCCCCCCCCCCCCCCC(=O)*; γGlu = O=C(O)[C@H](CCC(=O)[*:2])N[*:1]

B1: N^-1-[(4S)-4-carboxy-4-(19-carboxynonadecanoylamino)butanoyl]-Gly[Arg1,His14,Arg17,Pro21,Pro27,Pro34]-h-amylin (peptide)
peptide: {C20 diacid-γGlu}-GRCNTATCATQRLAHFLRHSSPNFGAIPSSTNVGPNTY-NH2
modifications: disulfide 3-8
SMILES: CC[C@H](C)[C@H](NC(=O)[C@H](C)NC(=O)CNC(=O)[C@H](Cc1ccccc1)NC(=O)[C@H](CC(N)=O)NC(=O)[C@@H]1CCCN1C(=O)[C@H](CO)NC(=O)[C@H](CO)NC(=O)[C@H](Cc1c[nH]cn1)NC(=O)[C@H](CCCNC(=N)N)NC(=O)[C@H](CC(C)C)NC(=O)[C@H](Cc1ccccc1)NC(=O)[C@H](Cc1c[nH]cn1)NC(=O)[C@H](C)NC(=O)[C@H](CC(C)C)NC(=O)[C@H](CCCNC(=N)N)NC(=O)[C@H](CCC(N)=O)NC(=O)[C@@H](NC(=O)[C@H](C)NC(=O)[C@@H]1CSSC[C@H](NC(=O)[C@H](CCCNC(=N)N)NC(=O)CNC(=O)CC[C@H](NC(=O)CCCCCCCCCCCCCCCCCCC(=O)O)C(=O)O)C(=O)N[C@@H](CC(N)=O)C(=O)N[C@@H]([C@@H](C)O)C(=O)N[C@@H](C)C(=O)N[C@@H]([C@@H](C)O)C(=O)N1)[C@@H](C)O)C(=O)N1CCC[C@H]1C(=O)N[C@@H](CO)C(=O)N[C@@H](CO)C(=O)N[C@H](C(=O)N[C@@H](CC(N)=O)C(=O)N[C@H](C(=O)NCC(=O)N1CCC[C@H]1C(=O)N[C@@H](CC(N)=O)C(=O)N[C@H](C(=O)N[C@@H](Cc1ccc(O)cc1)C(N)=O)[C@@H](C)O)C(C)C)[C@@H](C)O
As to B1, the “Ratio hCT/hAmylin binding” value in assay [1] was 36.2. The IC50 (usually the concentration at which inhibition is half-maximal) was found to be 0.674 nM in assay [2] and 65.9 nM in assay [3]. The “Ratio rCT/rAmylin binding” value in assay [4] worked out at 97.7.

B2: N{-1}-[(4S)-4-carboxy-4-(19-carboxynonadecanoylamino)butanoyl]-Gly[Arg1,His14,Arg17,Pro21,Pro27]-h-amylin (peptide)
peptide: {C20 diacid-γGlu}-GRCNTATCATQRLAHFLRHSSPNFGAIPSSTNVGSNTY-NH2
modifications: disulfide 3-8
SMILES: CC[C@H](C)[C@H](NC(=O)[C@H](C)NC(=O)CNC(=O)[C@H](Cc1ccccc1)NC(=O)[C@H](CC(N)=O)NC(=O)[C@@H]1CCCN1C(=O)[C@H](CO)NC(=O)[C@H](CO)NC(=O)[C@H](Cc1c[nH]cn1)NC(=O)[C@H](CCCNC(=N)N)NC(=O)[C@H](CC(C)C)NC(=O)[C@H](Cc1ccccc1)NC(=O)[C@H](Cc1c[nH]cn1)NC(=O)[C@H](C)NC(=O)[C@H](CC(C)C)NC(=O)[C@H](CCCNC(=N)N)NC(=O)[C@H](CCC(N)=O)NC(=O)[C@@H](NC(=O)[C@H](C)NC(=O)[C@@H]1CSSC[C@H](NC(=O)[C@H](CCCNC(=N)N)NC(=O)CNC(=O)CC[C@H](NC(=O)CCCCCCCCCCCCCCCCCCC(=O)O)C(=O)O)C(=O)N[C@@H](CC(N)=O)C(=O)N[C@@H]([C@@H](C)O)C(=O)N[C@@H](C)C(=O)N[C@@H]([C@@H](C)O)C(=O)N1)[C@@H](C)O)C(=O)N1CCC[C@H]1C(=O)N[C@@H](CO)C(=O)N[C@@H](CO)C(=O)N[C@H](C(=O)N[C@@H](CC(N)=O)C(=O)N[C@H](C(=O)NCC(=O)N[C@@H](CO)C(=O)N[C@@H](CC(N)=O)C(=O)N[C@H](C(=O)N[C@@H](Cc1ccc(O)cc1)C(N)=O)[C@@H](C)O)C(C)C)[C@@H](C)O
notes: also called compound 99
As for B2, in assay [1], the “Ratio hCT/hAmylin binding” value amounted to 100. Also, the IC50 came out at 2.7 nM in assay [2] and 216 nM in assay [3]. Moreover, in assay [4], the “Ratio rCT/rAmylin binding” value came to 79.8.

The values are drawn from patent publication US20140087995A1 (published 2014).
